# B1: bovine apolipoprotein H (other)
# chain: GRTCPKPDELPFSTVVPLKRTYEPGEQIVFSCQPGYVSRGGIRRFTCPLTGLWPINTLKCMPRVCPFAGILENGTVRYTTFEYPNTISFSCHTGFYLKGASSAKCTEEGKWSPDLPVCAPITCPPPPIPKFASLSVYKPLAGNNSFYGSKAVFKCLPHHAMFGNDTVTCTEHGNWTQLPECREVRCPFPSRPDNGFVNHPANPVLYYKDTATFGCHETYSLDGPEEVECSKFGNWSAQPSCKASCKLSIKRATVIYEGERVAIQNKFKNGMLHGQKVSFFCKHKEKKCSYTEDAQCIDGTIEIPKCFKEHSSLAFWKTDASDVKPC
# notes: mature; Serum protein; also called β2-glycoprotein I
# Target: T1, MAL-Sbi (aa 33-436, SEQ ID NO:3) (Staphylococcus aureus strain 8325-4, UniProt A6QJQ7 33-436)
# T1 construct: Expressed in E. coli from pMAL-c2 (BamHI-SalI insert), purified on amylose resin and then on IgG-Sepharose; also called MAL-fusion of protein Sbi; mature full length protein; not shown: its limits and the v
# Test: blot of the purified proteins overlaid with MAL-Sbi, detected with HRP-labelled chicken anti-Sbi
binder,measurement,value
B1,binding result,binds

# From patent publication US6548639 (BIOSTAPRO, dated 2003)
